Results reported in PMC9482650, “Quantitative fragmentomics allow affinity mapping of interactomes” (Nature Communications, 2022).

Columns and labels:
Assay in all cases: holdup assay
Set-up in all cases: key: below the threshold = too weak to quantify, mostly under pKd 3.1 to 4
[1] = target: T1, APBA2_2, Q99767
T1 sequence (Q99767 654-744, limits assumed, looked up): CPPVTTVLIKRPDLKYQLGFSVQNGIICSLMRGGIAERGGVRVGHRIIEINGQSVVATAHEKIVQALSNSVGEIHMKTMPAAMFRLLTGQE

[2] = target: T2, ARHGEF11, O15085
T2 sequence (O15085 42-136, limits assumed, looked up): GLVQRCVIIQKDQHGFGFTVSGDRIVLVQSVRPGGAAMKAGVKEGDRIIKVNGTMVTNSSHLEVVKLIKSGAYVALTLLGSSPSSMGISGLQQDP

[3] = target: T3, DFNB31_2, Q9P202
T3 sequence (Q9P202 274-371, limits assumed, looked up): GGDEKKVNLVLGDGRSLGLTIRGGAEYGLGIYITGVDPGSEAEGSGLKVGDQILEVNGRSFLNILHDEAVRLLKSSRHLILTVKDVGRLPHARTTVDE

[4] = target: T4, DFNB31_3, Q9P202
T4 sequence (Q9P202 811-907, limits assumed, looked up): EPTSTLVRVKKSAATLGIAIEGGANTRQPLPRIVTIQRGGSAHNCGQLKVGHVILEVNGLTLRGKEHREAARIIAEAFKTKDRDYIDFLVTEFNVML

[5] = target: DLG1_3, Q12959
Chain of DLG1_3, Q12959 (Q12959 457-571): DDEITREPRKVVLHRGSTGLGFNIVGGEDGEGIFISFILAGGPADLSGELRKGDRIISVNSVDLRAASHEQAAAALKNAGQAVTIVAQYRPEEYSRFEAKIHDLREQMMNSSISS

[6] = target: GOPC, Q9HD26
[7] = target: GORASP2, Q9H8Y8
[8] = target: GRID2IP_2, A4D2P6
Chain of GRID2IP_2, A4D2P6 (A4D2P6 272-370): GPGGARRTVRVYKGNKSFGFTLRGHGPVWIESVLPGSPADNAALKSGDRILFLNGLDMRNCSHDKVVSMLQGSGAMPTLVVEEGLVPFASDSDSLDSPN

[9] = target: GRIP2_4, Q9C0E4
Chain of GRIP2_4, Q9C0E4 (Q9C0E4 446-548): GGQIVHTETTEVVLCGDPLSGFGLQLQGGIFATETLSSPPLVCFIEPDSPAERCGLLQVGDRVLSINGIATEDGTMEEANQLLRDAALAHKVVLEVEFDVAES

[10] = target: GRIP2_5, Q9C0E4
Chain of GRIP2_5, Q9C0E4 (Q9C0E4 544-642): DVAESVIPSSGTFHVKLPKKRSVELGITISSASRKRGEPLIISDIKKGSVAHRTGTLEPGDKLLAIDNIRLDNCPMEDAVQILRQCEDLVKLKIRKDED

[11] = target: HTRA1, Q92743
Chain of HTRA1, Q92743 (Q92743 360-477): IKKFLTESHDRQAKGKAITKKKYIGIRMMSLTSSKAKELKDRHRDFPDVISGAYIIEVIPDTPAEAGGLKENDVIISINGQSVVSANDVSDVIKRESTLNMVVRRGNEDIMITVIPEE

[12] = target: HTRA2, O43464
Chain of HTRA2, O43464 (O43464 355-458): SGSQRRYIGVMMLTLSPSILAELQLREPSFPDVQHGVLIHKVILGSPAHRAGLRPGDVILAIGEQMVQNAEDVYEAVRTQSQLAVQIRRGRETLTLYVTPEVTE

[13] = target: T5, HTRA3, P83110
T5 sequence (P83110 354-453, limits assumed, looked up): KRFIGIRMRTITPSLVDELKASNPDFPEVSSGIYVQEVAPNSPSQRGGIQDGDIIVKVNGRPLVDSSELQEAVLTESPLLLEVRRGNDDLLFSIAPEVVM

[14] = target: IL16_3, Q14005
Chain of IL16_3, Q14005 (Q14005 1107-1207): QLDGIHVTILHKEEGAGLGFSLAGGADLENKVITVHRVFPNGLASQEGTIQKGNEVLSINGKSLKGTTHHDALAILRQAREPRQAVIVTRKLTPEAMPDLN

[15] = target: Inadl_1, Q8NI35
Chain of Inadl_1, Q8NI35 (Q8NI35 113-229): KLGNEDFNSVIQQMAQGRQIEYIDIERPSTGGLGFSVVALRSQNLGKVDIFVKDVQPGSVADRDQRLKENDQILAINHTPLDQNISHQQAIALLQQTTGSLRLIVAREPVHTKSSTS

[16] = target: Inadl_4, Q8NI35
Chain of Inadl_4, Q8NI35 (Q8NI35 547-651): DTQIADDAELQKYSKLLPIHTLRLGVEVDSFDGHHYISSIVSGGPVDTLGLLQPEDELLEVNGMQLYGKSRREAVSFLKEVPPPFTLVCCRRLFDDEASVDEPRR

[17] = target: Inadl_5, Q8NI35
Chain of Inadl_5, Q8NI35 (Q8NI35 673-780): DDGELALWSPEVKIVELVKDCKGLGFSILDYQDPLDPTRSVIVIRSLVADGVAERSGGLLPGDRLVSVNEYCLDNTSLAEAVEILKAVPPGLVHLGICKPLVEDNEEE

[18] = target: Inadl_9, Q8NI35
Chain of Inadl_9, Q8NI35 (Q8NI35 1530-1615): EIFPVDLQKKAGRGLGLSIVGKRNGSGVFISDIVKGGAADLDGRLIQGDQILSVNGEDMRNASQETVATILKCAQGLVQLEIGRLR

[19] = target: T6, LNX2_2, Q8N448
T6 sequence (Q8N448 334-432, limits assumed, looked up): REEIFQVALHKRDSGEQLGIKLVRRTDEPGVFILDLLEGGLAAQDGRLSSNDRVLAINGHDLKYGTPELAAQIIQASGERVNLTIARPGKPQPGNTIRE

[20] = target: T7, LNX2_3, Q8N448
T7 sequence (Q8N448 463-564, limits assumed, looked up): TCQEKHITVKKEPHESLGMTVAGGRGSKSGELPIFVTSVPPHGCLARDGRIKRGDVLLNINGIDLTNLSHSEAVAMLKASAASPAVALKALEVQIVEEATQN

[21] = target: MAGI1_1, Q96QZ7
Chain of MAGI1_1, Q96QZ7 (Q96QZ7 1-106): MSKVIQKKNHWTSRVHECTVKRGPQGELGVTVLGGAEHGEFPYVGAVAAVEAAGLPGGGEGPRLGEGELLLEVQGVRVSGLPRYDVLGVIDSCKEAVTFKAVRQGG

[22] = target: MAGI3_2, Q5TCQ9
Chain of MAGI3_2, Q5TCQ9 (Q5TCQ9 398-503): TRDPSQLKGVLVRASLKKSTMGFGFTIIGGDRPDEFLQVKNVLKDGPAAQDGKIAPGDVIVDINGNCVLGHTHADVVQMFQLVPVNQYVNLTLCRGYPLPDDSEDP

[23] = target: MAST1, Q9Y2H9
Chain of MAST1, Q9Y2H9 (Q9Y2H9 962-1065): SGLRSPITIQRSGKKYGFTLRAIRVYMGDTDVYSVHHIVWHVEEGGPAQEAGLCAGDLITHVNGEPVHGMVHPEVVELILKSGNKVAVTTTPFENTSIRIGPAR

[24] = target: T8, MPDZ_10, O75970
T8 sequence (O75970 1624-1722, limits assumed, looked up): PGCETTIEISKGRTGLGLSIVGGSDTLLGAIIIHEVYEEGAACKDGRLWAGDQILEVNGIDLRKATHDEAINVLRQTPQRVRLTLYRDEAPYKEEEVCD

[25] = target: T9, NHERF3_3, Q5T2W1
T9 sequence (Q5T2W1 238-333, limits assumed, looked up): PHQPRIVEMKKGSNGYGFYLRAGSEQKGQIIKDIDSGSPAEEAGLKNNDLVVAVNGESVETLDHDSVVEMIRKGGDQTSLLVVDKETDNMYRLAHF

[26] = target: PICK1, Q9NRD5
Chain of PICK1, Q9NRD5 (Q9NRD5 17-115): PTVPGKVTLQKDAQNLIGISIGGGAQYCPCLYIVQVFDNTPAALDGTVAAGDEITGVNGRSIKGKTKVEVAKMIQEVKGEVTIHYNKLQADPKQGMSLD

[27] = target: SNX27, Q96L92
[28] = target: TJP1_2, Q07157
Chain of TJP1_2, Q07157 (Q07157 181-274): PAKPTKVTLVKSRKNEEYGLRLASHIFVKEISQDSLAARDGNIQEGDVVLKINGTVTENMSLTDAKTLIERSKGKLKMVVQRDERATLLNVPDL

[29] = target: TJP1_3, Q07157
Chain of TJP1_3, Q07157 (Q07157 416-512): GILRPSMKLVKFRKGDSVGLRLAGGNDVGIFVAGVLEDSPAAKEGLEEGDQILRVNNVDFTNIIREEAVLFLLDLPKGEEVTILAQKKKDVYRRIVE

[30] = plain residues with an end cap or a label only (N-terminal biotin on a linker: ttds)
[31] = plain residues with an end cap or a label only (N-terminal biotin on a linker: ado-ado)

B1: ABRAXAS2, Q15018 (peptide)
chain: DPRNTQTSQI
pKd [1, 30]: below the threshold
pKd [2, 30]: 4.03
pKd [3, 30]: 3.62
pKd [4, 30]: 3.67
pKd [5, 30]: 3.52
pKd [6, 30]: 4.13
pKd [7, 30]: below the threshold
pKd [8, 30]: 4.24
pKd [9, 30]: below the threshold
pKd [10, 30]: below the threshold
pKd [11, 30]: 3.64
pKd [12, 30]: below the threshold
pKd [13, 30]: below the threshold
pKd [14, 30]: below the threshold
pKd [15, 30]: 3.72
pKd [16, 30]: below the threshold
pKd [17, 30]: below the threshold
pKd [18, 30]: below the threshold
pKd [19, 30]: below the threshold
pKd [20, 30]: below the threshold
pKd [21, 30]: below the threshold
pKd [22, 30]: below the threshold
pKd [23, 30]: 4.32
pKd [24, 30]: below the threshold
pKd [25, 30]: below the threshold
pKd [26, 30]: below the threshold
pKd [27, 30]: 4.04
pKd [28, 30]: below the threshold
pKd [29, 30]: below the threshold

B2: SLC23A1, Q9UHI7 (peptide)
chain: TETASVCTKV
pKd [1, 31]: below the threshold
pKd [2, 31]: 4.24
pKd [3, 31]: below the threshold
pKd [4, 31]: below the threshold
pKd [5, 31]: below the threshold
pKd [6, 31]: 4.17
pKd [7, 31]: 4.17
pKd [8, 31]: 3.98
pKd [9, 31]: below the threshold
pKd [10, 31]: below the threshold
pKd [11, 31]: 3.73
pKd [12, 31]: below the threshold
pKd [13, 31]: below the threshold
pKd [14, 31]: below the threshold
pKd [15, 31]: below the threshold
pKd [16, 31]: below the threshold
pKd [17, 31]: below the threshold
pKd [18, 31]: below the threshold
pKd [19, 31]: 3.91
pKd [20, 31]: below the threshold
pKd [21, 31]: below the threshold
pKd [22, 31]: 4.18
pKd [23, 31]: 4.85
pKd [24, 31]: 3.73
pKd [25, 31]: 3.7
pKd [26, 31]: 4.24
pKd [27, 31]: 4.85
pKd [28, 31]: 3.5
pKd [29, 31]: below the threshold

B3: AGMAT, Q9BSE5 (peptide)
chain: LCALPKVTTV
pKd [1, 30]: below the threshold
pKd [2, 30]: 4.52
pKd [3, 30]: 3.77
pKd [4, 30]: 3.69
pKd [5, 30]: 4.77
pKd [6, 30]: 3.78
pKd [7, 30]: 5.18
pKd [8, 30]: 4.01
pKd [9, 30]: below the threshold
pKd [10, 30]: below the threshold
pKd [11, 30]: 4.75
pKd [12, 30]: 3.8
pKd [13, 30]: 3.71
pKd [14, 30]: below the threshold
pKd [15, 30]: 3.57
pKd [16, 30]: below the threshold
pKd [17, 30]: below the threshold
pKd [18, 30]: 3.52
pKd [19, 30]: 5.21
pKd [20, 30]: below the threshold
pKd [21, 30]: below the threshold
pKd [22, 30]: 4.82
pKd [23, 30]: 3.88
pKd [24, 30]: 4.14
pKd [25, 30]: below the threshold
pKd [26, 30]: below the threshold
pKd [27, 30]: 4.43
pKd [28, 30]: below the threshold
pKd [29, 30]: below the threshold

B4: PRKCA, P17252 (peptide)
chain: FVHPILQSAV
pKd [1, 31]: below the threshold
pKd [2, 31]: 4.17
pKd [3, 31]: below the threshold
pKd [4, 31]: 3.57
pKd [5, 31]: 3.85
pKd [6, 31]: 4
pKd [7, 31]: below the threshold
pKd [8, 31]: 4.36
pKd [9, 31]: below the threshold
pKd [10, 31]: below the threshold
pKd [11, 31]: below the threshold
pKd [12, 31]: below the threshold
pKd [13, 31]: below the threshold
pKd [14, 31]: below the threshold
pKd [15, 31]: below the threshold
pKd [16, 31]: below the threshold
pKd [17, 31]: below the threshold
pKd [18, 31]: below the threshold
pKd [19, 31]: below the threshold
pKd [20, 31]: below the threshold
pKd [21, 31]: below the threshold
pKd [22, 31]: 4.32
pKd [23, 31]: 4.23
pKd [24, 31]: below the threshold
pKd [25, 31]: below the threshold
pKd [26, 31]: below the threshold
pKd [27, 31]: 4.68
pKd [28, 31]: below the threshold
pKd [29, 31]: below the threshold

B5: TAGAP, Q8N103 (peptide)
chain: QFQYAKESYI
pKd [1, 30]: below the threshold
pKd [2, 30]: below the threshold
pKd [3, 30]: 4.74
pKd [4, 30]: below the threshold
pKd [5, 30]: 4.05
pKd [6, 30]: 3.95
pKd [7, 30]: 3.9
pKd [8, 30]: 3.72
pKd [9, 30]: below the threshold
pKd [10, 30]: below the threshold
pKd [11, 30]: 4.03
pKd [12, 30]: below the threshold
pKd [13, 30]: 3.76
pKd [14, 30]: below the threshold
pKd [15, 30]: below the threshold
pKd [16, 30]: below the threshold
pKd [17, 30]: below the threshold
pKd [18, 30]: 3.5
pKd [19, 30]: below the threshold
pKd [20, 30]: below the threshold
pKd [21, 30]: below the threshold
pKd [22, 30]: 4.6
pKd [23, 30]: 3.54
pKd [24, 30]: below the threshold
pKd [25, 30]: below the threshold
pKd [26, 30]: below the threshold
pKd [27, 30]: 3.75
pKd [28, 30]: below the threshold
pKd [29, 30]: below the threshold
